Experimental data taken from patent publication US20190092872A1 (Hoffmann-La Roche, published 2019).

Assays:
FcγRIIIA = target: T1, FcγRIIIA (UniProt P08637 17-208, limits assumed); experiment: SPR (Biacore T100), FcγRIIIA with His tag captured on immobilised anti-His antibody, antibody injected (Example 9)
T1 construct: Captured from a 200 nM solution on immobilized anti-His antibody; also called CD16
Experimental: The SPR interaction analysis of captured FcγRIIIA and IgG1 Fc variants was performed on a Biacore T100 system (GE Healthcare) with high immobilized anti-His capturing antibody (GE Healthcare). Immobilization of the anti-His capturing antibody was performed on a CMS chip using the standard amine coupling kit (GE Healthcare) at pH 4.5 10 mM sodium acetate and 10 μg/ml anti-His solution. The immobilization level of anti-His reached more than 10.000 RU. FcγRIIIA was applied in a 200 nM solution, in the running buffer HBS-P+ and captured with a pulse of 60 sec at a flow rate of 30 μl per min. […] The dissociation phase was monitored for 180 sec. The surface was regenerated by a 60 sec washing step with a 10 mM Glycine pH 1.5 at a flow rate of 30 μl per min. The stabilization period took 60 sec. The Biacore T100 evaluation software was used for data analysis.

FcγRI [1] = target: T2, FcγRI (UniProt P12314 16-288, limits assumed); experiment: SPR steady state affinity (Biacore T100), FcγRI captured via anti-His antibody, antibody 1000-62.5 nM
T2 construct: Captured from a 100 nM solution on immobilized anti-His antibody; also called FcγRI receptor; FcγRIa
T2 sequence (P12314 16-288 limits assumed): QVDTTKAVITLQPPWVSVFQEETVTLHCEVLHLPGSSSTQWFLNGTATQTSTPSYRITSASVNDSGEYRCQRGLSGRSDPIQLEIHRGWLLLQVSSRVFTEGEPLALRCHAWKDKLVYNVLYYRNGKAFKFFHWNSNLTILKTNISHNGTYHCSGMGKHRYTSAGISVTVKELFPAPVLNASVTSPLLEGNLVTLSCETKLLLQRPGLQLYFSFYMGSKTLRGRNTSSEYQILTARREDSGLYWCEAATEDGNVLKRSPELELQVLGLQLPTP
Experimental: (§1) Biacore T100 system (GE Healthcare) with high immobilized anti-His capturing antibody (GE Healthcare). Immobilization of the anti-His capturing antibody was performed on a CMS chip using the standard amine coupling kit (GE Healthcare) at pH 4.5 10 mM sodium acetate and 10 μg/ml anti-His solution. The immobilization level of anti-His reached more than 10.000 RU. FcγRI was applied in a 100 nM solution, in the running buffer HBS-P+ and captured with a pulse of 60 sec at a flow rate of 30 μl per min. […] The dissociation phase was monitored for 180 sec. The surface was regenerated by a 60 sec washing step with a 10 mM Glycine pH 1.5 at a flow rate of 30 μl per min. The stabilization period took 60 sec. The Biacore T100 evaluation software was used for data analysis.
(§2) For the steady state affinity concentration determination the response values from the end of association were used to plot the response against the concentration. The Biacore T100 evaluation software was used to calculate the affinity of samples for immobilized FcγRI receptor from the plot.

FcγRI [2] = target: T2, FcγRI; experiment: SPR steady state affinity; reference is the IgG1 Wt affinity for FcγRI
Experimental: as §1, §2

FcγRI [3] = target: T2, FcγRI; experiment: SPR steady state affinity fit, FcγRI captured on anti-His antibody; beside it offset (RU) 26.88 and Chi² (RU²) 7.76
Experimental: as §1, §2

T1 sequence (P08637 17-208 limits assumed): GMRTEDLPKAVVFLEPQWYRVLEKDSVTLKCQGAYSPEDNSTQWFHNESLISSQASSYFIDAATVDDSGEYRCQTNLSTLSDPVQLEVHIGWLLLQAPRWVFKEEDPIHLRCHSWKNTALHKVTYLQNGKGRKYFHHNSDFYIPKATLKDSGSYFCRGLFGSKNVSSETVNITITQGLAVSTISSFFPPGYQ

binding result (FcγRIIIA): no binding (tested: 1000 nM)
Kd (FcγRI [1]): 234 nM
fold below the IgG1 Wt affinity (FcγRI [2]): ~50 fold
Kd (FcγRI [3]): 234 nM
B1: obinutuzumab N297D (antibody)
heavy: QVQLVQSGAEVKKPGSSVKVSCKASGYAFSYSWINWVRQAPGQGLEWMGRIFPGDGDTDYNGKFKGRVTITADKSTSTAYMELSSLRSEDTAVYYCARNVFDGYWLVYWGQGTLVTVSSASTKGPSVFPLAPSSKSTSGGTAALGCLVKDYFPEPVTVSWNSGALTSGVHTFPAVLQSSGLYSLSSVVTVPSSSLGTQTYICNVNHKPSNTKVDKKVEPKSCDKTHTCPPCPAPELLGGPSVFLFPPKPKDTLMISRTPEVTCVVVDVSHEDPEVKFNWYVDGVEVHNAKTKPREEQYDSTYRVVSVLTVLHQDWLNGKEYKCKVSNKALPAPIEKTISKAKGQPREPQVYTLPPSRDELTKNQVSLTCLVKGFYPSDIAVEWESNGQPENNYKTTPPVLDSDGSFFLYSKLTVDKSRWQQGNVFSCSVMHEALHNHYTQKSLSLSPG
VL: DIVMTQTPLSLPVTPGEPASISCRSSKSLLHSNGITYLYWYLQKPGQSPQLLIYQMSNLVSGVPDRFSGSGSGTDFTLKISRVEAEDVGVYYCAQNLELPYTFGGGTKVEIK
modifications: N297D removes the Fc N-glycosylation site, so the antibody is aglycosylated ('aglyco').
notes: IgG1 expressed in HEK-EBNA or HEK293 and purified by protein A and size exclusion chromatography; also called GA101 N297D; GA101 aglyco (N297D)
